# Reference: patent US20230143604A1, “QW DOSING OF GIP RECEPTOR AGONIST PEPTIDE COMPOUNDS AND USES THEREOF” (TAKEDA PHARMACEUTICAL COMPANY LIMITED, priority 2020, published 2023)
# Non-standard residues stand in square brackets, D forms with d. Groups on a side chain read outwards from the residue. No end group written: not given here. *: point of attachment. 2OEGgEgE‑C18 diacid = O=C(O)CCCCCCCCCCCCCCCCC(=O)N[C@@H](CCC(=O)N[C@@H](CCC(=O)NCCOCCOCC(=O)NCCOCCOCC(=O)*)C(=O)O)C(=O)O; C20 diacid = O=C(O)CCCCCCCCCCCCCCCCCCC(=O)*; C18 diacid = O=C(O)CCCCCCCCCCCCCCCCC(=O)*; C17 diacid = O=C(O)CCCCCCCCCCCCCCCC(=O)*; NMeY = CN[C@@H](Cc1ccc(O)cc1)C(=O)O; Aib = CC(C)(N)C(=O)O
# T1: full-length human GIPR with an N-terminal FLAG tag (human, UniProt P48546 22-466)
# T1 sequence (looked up): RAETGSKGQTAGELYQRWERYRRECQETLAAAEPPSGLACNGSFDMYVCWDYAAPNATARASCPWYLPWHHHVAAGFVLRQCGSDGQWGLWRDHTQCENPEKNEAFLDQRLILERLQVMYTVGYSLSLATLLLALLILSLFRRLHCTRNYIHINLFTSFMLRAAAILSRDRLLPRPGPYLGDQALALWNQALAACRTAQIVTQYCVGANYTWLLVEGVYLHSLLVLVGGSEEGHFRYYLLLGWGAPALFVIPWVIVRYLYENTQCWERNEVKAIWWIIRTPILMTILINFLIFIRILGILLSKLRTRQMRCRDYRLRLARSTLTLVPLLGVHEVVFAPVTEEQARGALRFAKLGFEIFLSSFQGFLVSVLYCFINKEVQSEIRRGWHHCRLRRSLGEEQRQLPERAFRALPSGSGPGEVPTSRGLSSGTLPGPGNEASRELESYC
# B1: Compound No. 57 (peptide)
# peptide: [NMeY][Aib]EGTFISDYSIALDR[Aib]AQ[Aib]DFVNWLLAK(2OEGgEgE‑C18 diacid)RGGGGS-NH2
# modifications: N-terminus assumed
# SMILES: CC[C@H](C)[C@H](NC(=O)[C@H](CO)NC(=O)[C@H](Cc1ccc(O)cc1)NC(=O)[C@H](CC(=O)O)NC(=O)[C@H](CO)NC(=O)[C@@H](NC(=O)[C@H](Cc1ccccc1)NC(=O)[C@@H](NC(=O)CNC(=O)[C@H](CCC(=O)O)NC(=O)C(C)(C)NC(=O)[C@H](Cc1ccc(O)cc1)NC)[C@@H](C)O)[C@@H](C)CC)C(=O)N[C@@H](C)C(=O)N[C@@H](CC(C)C)C(=O)N[C@@H](CC(=O)O)C(=O)N[C@@H](CCCNC(=N)N)C(=O)NC(C)(C)C(=O)N[C@@H](C)C(=O)N[C@@H](CCC(N)=O)C(=O)NC(C)(C)C(=O)N[C@@H](CC(=O)O)C(=O)N[C@@H](Cc1ccccc1)C(=O)N[C@H](C(=O)N[C@@H](CC(N)=O)C(=O)N[C@@H](Cc1c[nH]c2ccccc12)C(=O)N[C@@H](CC(C)C)C(=O)N[C@@H](CC(C)C)C(=O)N[C@@H](C)C(=O)N[C@@H](CCCCNC(=O)COCCOCCNC(=O)COCCOCCNC(=O)CC[C@H](NC(=O)CC[C@H](NC(=O)CCCCCCCCCCCCCCCCC(=O)O)C(=O)O)C(=O)O)C(=O)N[C@@H](CCCNC(=N)N)C(=O)NCC(=O)NCC(=O)NCC(=O)NCC(=O)N[C@@H](CO)C(N)=O)C(C)C
# B2: Compound No. 61 (peptide)
# peptide: [NMeY][Aib]EGTFISDYSIALDR[Aib]AQ[Aib]DFVNWLLAQK(2OEGgEgE‑C18 diacid)G-OH
# modifications: N-terminus assumed
# SMILES: CC[C@H](C)[C@H](NC(=O)[C@H](CO)NC(=O)[C@H](Cc1ccc(O)cc1)NC(=O)[C@H](CC(=O)O)NC(=O)[C@H](CO)NC(=O)[C@@H](NC(=O)[C@H](Cc1ccccc1)NC(=O)[C@@H](NC(=O)CNC(=O)[C@H](CCC(=O)O)NC(=O)C(C)(C)NC(=O)[C@H](Cc1ccc(O)cc1)NC)[C@@H](C)O)[C@@H](C)CC)C(=O)N[C@@H](C)C(=O)N[C@@H](CC(C)C)C(=O)N[C@@H](CC(=O)O)C(=O)N[C@@H](CCCNC(=N)N)C(=O)NC(C)(C)C(=O)N[C@@H](C)C(=O)N[C@@H](CCC(N)=O)C(=O)NC(C)(C)C(=O)N[C@@H](CC(=O)O)C(=O)N[C@@H](Cc1ccccc1)C(=O)N[C@H](C(=O)N[C@@H](CC(N)=O)C(=O)N[C@@H](Cc1c[nH]c2ccccc12)C(=O)N[C@@H](CC(C)C)C(=O)N[C@@H](CC(C)C)C(=O)N[C@@H](C)C(=O)N[C@@H](CCC(N)=O)C(=O)N[C@@H](CCCCNC(=O)COCCOCCNC(=O)COCCOCCNC(=O)CC[C@H](NC(=O)CC[C@H](NC(=O)CCCCCCCCCCCCCCCCC(=O)O)C(=O)O)C(=O)O)C(=O)NCC(=O)O)C(C)C
# B3: Compound No. 62 (peptide)
# peptide: [NMeY][Aib]EGTFISDYSI[Aib]LDR[Aib]AQ[Aib]DFVNWLLAK(2OEGgEgE‑C18 diacid)RG-OH
# modifications: N-terminus assumed
# SMILES: CC[C@H](C)[C@H](NC(=O)[C@H](Cc1ccccc1)NC(=O)[C@@H](NC(=O)CNC(=O)[C@H](CCC(=O)O)NC(=O)C(C)(C)NC(=O)[C@H](Cc1ccc(O)cc1)NC)[C@@H](C)O)C(=O)N[C@@H](CO)C(=O)N[C@@H](CC(=O)O)C(=O)N[C@@H](Cc1ccc(O)cc1)C(=O)N[C@@H](CO)C(=O)N[C@H](C(=O)NC(C)(C)C(=O)N[C@@H](CC(C)C)C(=O)N[C@@H](CC(=O)O)C(=O)N[C@@H](CCCNC(=N)N)C(=O)NC(C)(C)C(=O)N[C@@H](C)C(=O)N[C@@H](CCC(N)=O)C(=O)NC(C)(C)C(=O)N[C@@H](CC(=O)O)C(=O)N[C@@H](Cc1ccccc1)C(=O)N[C@H](C(=O)N[C@@H](CC(N)=O)C(=O)N[C@@H](Cc1c[nH]c2ccccc12)C(=O)N[C@@H](CC(C)C)C(=O)N[C@@H](CC(C)C)C(=O)N[C@@H](C)C(=O)N[C@@H](CCCCNC(=O)COCCOCCNC(=O)COCCOCCNC(=O)CC[C@H](NC(=O)CC[C@H](NC(=O)CCCCCCCCCCCCCCCCC(=O)O)C(=O)O)C(=O)O)C(=O)N[C@@H](CCCNC(=N)N)C(=O)NCC(=O)O)C(C)C)[C@@H](C)CC
# Biological target: T1, full-length human GIPR with an …
# Assay: cell-based or functional assay
row,Binder,"Human GIPR cAMP EC50, HEK293T"
1,[NMeY][Aib]EGTFISDYSIALDR[Aib]K([2OEGgEgE-C20 diacid])Q[Aib]NFVNWLLAQSPSSGAPPPS-NH2 [Compound No. 68],0.0007 nM
2,[NMeY][Aib]EGTFISDYSIAKDR[Aib]AQ[Aib]NFVNWLLAQK-NH2 (not fully specified (residue 14)) [Compound No. 6],0.0004 nM
3,[NMeY][Aib]EGTFISDYSI[Aib]LDR[Aib]AQ[Aib]K([2OEGgEgE-C18 diacid])FVNWLLAQKG-OH [Compound No. 66],0.0008 nM
4,B1,0.0006 nM
5,[NMeY][Aib]EGTFISDYSIAK([G4gE-C18 diacid])DR[Aib]AQ[Aib]DFVNWLLAQKG-OH [Compound No. 80],0.0003 nM
6,[NMeY][Aib]EGTFISDYSI[Aib]LDR[Aib]AQ[Aib]K([2OEGgEgE-C20 diacid])FVNWLLAQKG-OH [Compound No. 65],0.001 nM
7,"YXEGTFISDYSIAXDRXAQXDFVNWLLAQSPG (N-methyl Tyr 1; Aib at 2,17,20; Lys(G5-C18 diacid) at 14; C-terminal OH) [Compound No. 84]",0.0002 nM
8,B2,0.0007 nM
9,[NMeY][Aib]EGTFISDYSIALDR[Aib]AQ[Aib]NFVNWLLAK(2OEGgEgE‑C18 diacid)SPSSGAPPPS-NH2 [Compound No. 59],0.0005 nM
10,[NMeY][Aib]EGTFISDYSIALDRIHQQNFVNWLLAQK-NH2 (not fully specified (residue 30)) [Compound No. 5],0.0007 nM
11,[NMeY][Aib]EGTFISDYSIAK([2OEGgEgE-C17 diacid])DR[Aib]AQ[Aib]NFVNWLLAQR-OH [Compound No. 7],0.0004 nM
12,B3,0.0004 nM

# Biological target: full-length human GLP-1R with an N-terminal FLAG tag (human, UniProt P43220 24-463)
# Assay: cell-based or functional assay
row,Binder,"Human GLP1R cAMP EC50, HEK293T"
1,[NMeY][Aib]EGTFISDYSIALDR[Aib]K([2OEGgEgE-C20 diacid])Q[Aib]NFVNWLLAQSPSSGAPPPS-NH2 [Compound No. 68],> 1000 nM
2,[NMeY][Aib]EGTFISDYSIAKDR[Aib]AQ[Aib]NFVNWLLAQK-NH2 (not fully specified (residue 14)) [Compound No. 6],83.2 nM
3,[NMeY][Aib]EGTFISDYSI[Aib]LDR[Aib]AQ[Aib]K([2OEGgEgE-C18 diacid])FVNWLLAQKG-OH [Compound No. 66],32.4 nM
4,B1,> 1000 nM
5,[NMeY][Aib]EGTFISDYSIAK([G4gE-C18 diacid])DR[Aib]AQ[Aib]DFVNWLLAQKG-OH [Compound No. 80],115 nM
6,[NMeY][Aib]EGTFISDYSI[Aib]LDR[Aib]AQ[Aib]K([2OEGgEgE-C20 diacid])FVNWLLAQKG-OH [Compound No. 65],40.7 nM
7,"YXEGTFISDYSIAXDRXAQXDFVNWLLAQSPG (N-methyl Tyr 1; Aib at 2,17,20; Lys(G5-C18 diacid) at 14; C-terminal OH) [Compound No. 84]",58.9 nM
8,B2,> 1000 nM
9,[NMeY][Aib]EGTFISDYSIALDR[Aib]AQ[Aib]NFVNWLLAK(2OEGgEgE‑C18 diacid)SPSSGAPPPS-NH2 [Compound No. 59],> 1000 nM
10,[NMeY][Aib]EGTFISDYSIALDRIHQQNFVNWLLAQK-NH2 (not fully specified (residue 30)) [Compound No. 5],123 nM
11,[NMeY][Aib]EGTFISDYSIAK([2OEGgEgE-C17 diacid])DR[Aib]AQ[Aib]NFVNWLLAQR-OH [Compound No. 7],589 nM
12,B3,> 1000 nM
